Key:
Conditions in all cases: both partners purified
[1] = biological target: T1, CD47 extracellular domain (biotin (enzymatically biotinylated; stated for the SPR experiment)); assay: ELISA; indirect ELISA; CD47^ext coated at 30 ug/mL overnight at 4 °C; serially diluted VHH, 2.5 h at 37 °C; detected with HRP-conjugated anti-His tag mAb, OD450
T1 construct: CD47 extracellular domain; bought protein Abcam ab174029; source: bought: Abcam (ab174029), enzymatically biotinylated

[2] = biological target: T1, CD47 extracellular domain; assay: ELISA; indirect ELISA after heat treatment of the VHH (10 min at six temperatures, 4 to 70 °C); CD47^ext coated at 30 ug/mL; VHH at 30 ug/mL, 2 h at 37 °C; detected with HRP-conjugated anti-His tag mAb, OD450
[3] = biological target: T1, CD47 extracellular domain; assay: SPR; Biacore 3000, 25 °C; ~350 RU enzymatically biotinylated CD47^ext immobilised on a CM5 chip, VHHs flowed over at 40 uL/min in 10 mM HEPES, 150 mM NaCl, 3 mM EDTA, 0.05% P20, pH 7.4; 1:1 Langmuir model; duplicates

T1 sequence (chain, as listed by the source): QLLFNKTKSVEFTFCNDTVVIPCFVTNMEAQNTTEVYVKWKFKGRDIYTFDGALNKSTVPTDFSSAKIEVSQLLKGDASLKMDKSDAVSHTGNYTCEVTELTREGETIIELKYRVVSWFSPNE

| Binder | ELISA signal relative to M0 at 5.625 ug/mL [1] [%] | ELISA signal relative to M0 at 360 ug/mL [1] [%] | OD450 at 70 °C relative to 4 °C [2] [%] | Kd [3] [nM] |
| --- | --- | --- | --- | --- |
| Nb02 quadruple mutant M7 (G107W, T108H, S109V, F110A) (VHH, also called best mutant; lead variant; source: E. coli TransB (DE3), purified (Ni2+ IMAC, HisTrap HP); not shown: His6, C-terminal, kept) VHH: EVQLQASGGGLVQAGGSLRLSCAASGFTNERSQNMGWFRQAPGKEREGVACISSRVVECWYADSVKGRFTISRDNAKNTVYLQMNSLKPEDTAVYYCAAPRAITWHVAVGEHMCDYWGQGTQVTVSS | 158 | ~120 | ~45 | 3.2 ± 1 |
| Nb02 mutant M2 (VHH, One of five triple and two quadruple mutants combined from the round 1 mutations; source: E. coli TransB (DE3), purified (Ni2+ IMAC, HisTrap HP)) VHH: EVQLQASGGGLVQAGGSLRLSCAASGFTNERSQNMGWFRQAPGKEREGVACIQSRVVECWYADSVKGRFTISRDNAKNTVYLQMNSLKPEDTAVYYCAAPRAITWTVFVGEHMCDYWGQGTQVTVSS |  |  |  | 11.4 ± 2.1 |
| Nb02 mutant M6 (VHH, One of five triple and two quadruple mutants combined from the round 1 mutations; source: E. coli TransB (DE3), purified (Ni2+ IMAC, HisTrap HP)) VHH: EVQLQASGGGLVQAGGSLRLSCAASGFTNERSQNMGWFRQAPGKEREGVACIQSRVVECWYADSVKGRFTISRDNAKNTVYLQMNSLKPEDTAVYYCAAPRAITWHVFVGEHMCDYWGQGTQVTVSS |  |  |  | 58.2 ± 4.5 |
| Nb02 mutant M3 (VHH, One of five triple and two quadruple mutants combined from the round 1 mutations; source: E. coli TransB (DE3), purified (Ni2+ IMAC, HisTrap HP)) VHH: EVQLQASGGGLVQAGGSLRLSCAASGFTNERSQNMGWFRQAPGKEREGVACIQSRVVECWYADSVKGRFTISRDNAKNTVYLQMNSLKPEDTAVYYCAAPRAITGHVFVGEHMCDYWGQGTQVTVSS |  |  |  | 69.5 ± 6.1 |
| Nb02 mutant M1 (VHH, One of five triple and two quadruple mutants combined from the round 1 mutations (S55Q, G107I, G107W, T108H, S109E, S109V, F110A); source: E. coli TransB (DE3), purified (Ni2+ IMAC, HisTrap HP)) VHH: EVQLQASGGGLVQAGGSLRLSCAASGFTNERSQNMGWFRQAPGKEREGVACIQSRVVECWYADSVKGRFTISRDNAKNTVYLQMNSLKPEDTAVYYCAAPRAITWHSFVGEHMCDYWGQGTQVTVSS |  |  |  | 74.5 ± 5.5 |

The remaining binders from weak to strong by Kd [3], led by results:

| ELISA signal relative to M0 at 5.625 ug/mL [1] [%] | ELISA signal relative to M0 at 360 ug/mL [1] [%] | OD450 at 70 °C relative to 4 °C [2] [%] | Kd [3] [nM] | Binder |
| --- | --- | --- | --- | --- |
|  |  |  | 57 ± 7.3 | Nb02 mutant M4 (VHH, the text says only that M4 includes F110A; One of five triple and two quadruple mutants combined from the round 1 mutations; source: E. coli TransB (DE3), purified (Ni2+ IMAC, HisTrap HP)) VHH: EVQLQASGGGLVQAGGSLRLSCAASGFTNERSQNMGWFRQAPGKEREGVACIQSRVVECWYADSVKGRFTISRDNAKNTVYLQMNSLKPEDTAVYYCAAPRAITGHSAVGEHMCDYWGQGTQVTVSS |
|  |  |  | 25.3 ± 3.7 | Nb02 mutant M5 (VHH, One of five triple and two quadruple mutants combined from the round 1 mutations; source: E. coli TransB (DE3), purified (Ni2+ IMAC, HisTrap HP)) VHH: EVQLQASGGGLVQAGGSLRLSCAASGFTNERSQNMGWFRQAPGKEREGVACISSRVVECWYADSVKGRFTISRDNAKNTVYLQMNSLKPEDTAVYYCAAPRAITWHVFVGEHMCDYWGQGTQVTVSS |

From paper PMC6747709, “Homology Modeling-Based in Silico Affinity Maturation Improves the Affinity of a Nanobody” (International Journal of Molecular Sciences, 2019)
